Data on eight molecules can be found in PMC3024583.

What all share (assay): EMSA
Data set [1] addresses T1, CSL (CBF1);Notch1 RAMANK wild-type;MAML1 (human?;human;human?, UniProt Q06330;P46531;Q92585 23-449;1760-2126;13-74, ||).
Data set [2] addresses T1, CSL (CBF1);Notch1 RAMANK wild-type;MAML1. This is another data set of the same source.
Data set [3] has the same target. This is another data set of the same source.
The target is the same in data set [4]. The source holds these as a separate data set.
Data set [5] concerns the target CSL (CBF1);Notch1 RAMANK R1985A;MAML1 (human?;human;human?, UniProt Q06330;P46531;Q92585 23-449;1760-2126;13-74, |R1984A|).
The target of data set [6] is T1, CSL (CBF1);Notch1 RAMANK wild-type;MAML1. This is another data set of the same source.
For data set [7] the target is unchanged. This is another data set of the same source.

Where two headings read alike, the source gives them in different places.

T1 sequence (Q06330 23-449, chain 1 of 3): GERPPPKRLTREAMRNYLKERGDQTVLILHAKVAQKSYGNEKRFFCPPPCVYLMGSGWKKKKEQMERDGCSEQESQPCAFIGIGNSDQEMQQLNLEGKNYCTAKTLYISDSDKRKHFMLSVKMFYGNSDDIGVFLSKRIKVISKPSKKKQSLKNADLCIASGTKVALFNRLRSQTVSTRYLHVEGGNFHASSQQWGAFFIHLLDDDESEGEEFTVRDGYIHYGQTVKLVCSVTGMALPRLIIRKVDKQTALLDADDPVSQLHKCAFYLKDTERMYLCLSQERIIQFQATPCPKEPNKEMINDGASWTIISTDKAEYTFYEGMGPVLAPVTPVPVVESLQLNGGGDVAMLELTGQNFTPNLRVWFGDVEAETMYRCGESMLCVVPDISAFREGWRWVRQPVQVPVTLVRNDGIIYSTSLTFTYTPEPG
T1 sequence (P46531 1760-2126, chain 2 of 3): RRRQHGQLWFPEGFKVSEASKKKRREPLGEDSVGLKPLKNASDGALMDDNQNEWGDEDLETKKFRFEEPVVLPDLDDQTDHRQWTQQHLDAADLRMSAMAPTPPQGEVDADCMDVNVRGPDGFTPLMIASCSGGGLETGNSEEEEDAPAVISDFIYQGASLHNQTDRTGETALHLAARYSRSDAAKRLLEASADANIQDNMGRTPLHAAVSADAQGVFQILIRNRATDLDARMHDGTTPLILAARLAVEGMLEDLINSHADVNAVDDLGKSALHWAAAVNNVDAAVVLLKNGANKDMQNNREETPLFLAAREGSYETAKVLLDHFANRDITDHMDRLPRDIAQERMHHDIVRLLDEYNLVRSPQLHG
T1 sequence (Q92585 13-74, chain 3 of 3): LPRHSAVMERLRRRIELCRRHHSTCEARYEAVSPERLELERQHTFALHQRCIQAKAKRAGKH
CSL (CBF1);Notch1 RAMANK R1985A;MAML1, sequence (Q06330 23-449, chain 1 of 3): as the sequence (Q06330 23-449, chain 1 of 3) above
CSL (CBF1);Notch1 RAMANK R1985A;MAML1, sequence (P46531 1760-2126 R1984A, chain 2 of 3): as the sequence (P46531 1760-2126, chain 2 of 3) above, with R225A counted along it
CSL (CBF1);Notch1 RAMANK R1985A;MAML1, sequence (Q92585 13-74, chain 3 of 3): as the sequence (Q92585 13-74, chain 3 of 3) above

B1: HES4 SPS (dsDNA)
DNA 1: GGCGAGTGTGGGAAAGAATGCGGAGCCGGGTTCACACACCCCGCGG
DNA 2: CCGCGGGGTGTGTGAACCCGGCTCCGCATTCTTTCCCACACTCGCC
For B1, in data set [1], the binding result is given as “binds”.

B2: HES5_E_long human (dsDNA)
DNA 1: GCGGAGTGTGGGAACGGCCGCGGCGCCCGGACTCCAGGCGCCAGGCCGC
DNA 2: GCGGCCTGGCGCCTGGAGTCCGGGCGCCGCGGCCGTTCCCACACTCCGC
With B2, the binding result in data set [2] was “binds”.

B3: Hes5_E_long mouse (dsDNA)
DNA 1: GCCGAGTGTGGGAACGGCCGCGGCGCCCGGACCCCAGGCGCCGGGCCGC
DNA 2: GCGGCCCGGCGCCTGGGGTCCGGGCGCCGCGGCCGTTCCCACACTCGGC
On to B3, for which the binding result in data set [2] was “binds”.

B4: FJX1 SPS (dsDNA)
DNA 1: GGACCTGTGAATCGCGCCCACCGGAGGGTCTCACAAGC
DNA 2: GCTTGTGAGACCCTCCGGTGGGCGCGATTCACAGGTCC
Turning to B4, the binding result in data set [1] is “binds”.

B5: 15bp SPS (SYT14) (dsDNA)
DNA 1: GCCAAACATGGGAAATTGCTGCTATTCTTTTCCCACTACAGCC
DNA 2: GGCTGTAGTGGGAAAAGAATAGCAGCAATTTCCCATGTTTGGC
In the case of B5, the binding result in data set [3] is given as “binds”.

B6: 17bp SPS (CUL1) (dsDNA)
DNA 1: GAATTACGTGGGAATTATAAATAAATTACTCTTCACACTCTTATCC
DNA 2: GGATAAGAGTGTGAAGAGTAATTTATTTATAATTCCCACGTAATTC
In the case of B6, the binding result in data set [4] was “binds”.

B7: Single-site control (dsDNA)
DNA 1: GGAAACACGCCGTGGGAAAAAATTTGGC
DNA 2: GCCAAATTTTTTCCCACGGCGTGTTTCC
Consider B7, for which the binding result in data set [5] and in data set [6] was “binds” in each case.

B8: HES1 SPS (dsDNA)
DNA 1: AGTTACTGTGGGAAAGAAAGTTTGGGAAGTTTCACACGAGCCGTTC
DNA 2: GAACGGCTCGTGTGAAACTTCCCAAACTTTCTTTCCCACAGTAACT
On to B8, for which, in data set [7], the binding result is recorded as “binds”.
